Source: patent publication US11130803B2, “Isoform-selective TGFβ1 inhibitors and use thereof” (Scholar Rock, Inc., priority 2018, dated 2021)
Like-named read-outs stand apart in the source and are kept apart here.

Experiments:
hGARP-proTGFβ1 = molecular target: T1, hGARP-proTGFβ1 (Homo sapiens, UniProt P01137); assay: MSD-SET solution equilibrium titration binding; details: MSD-SET at equilibrium, hIgG4, human complex; in M
T1 construct: made in house
From the text: (§1) Solution Equilibrium Titration (SET): The SET is an assay whereby binding between two molecules (such as an antigen and an antibody that binds the antigen) can be measured at equilibrium in a solution. For example, Meso-Scale Discovery (“MSD”)-based SET, or MSD-SET, is a useful mode of determining dissociation constants for particularly high-affinity protein-protein interactions at equilibrium, such as picomolar-affinity antibodies binding to their antigens (see, for example: Ducata et al. (2015) J Biomolecular Screening 20(10): 1256-1267). The SET-based assays are particularly useful for determining KD values of antibodies with sub-nanomolar (e.g., picomolar) affinities.
(§2) In view of this, it is contemplated that assays that measure binding affinities of such antibodies at equilibrium may more accurately represent the mode of target engagement in vivo. Thus, MSD-SET-based binding assays (or other suitable assays) may be performed, as exemplified in Table 9 below.
(§3) Solution equilibrium titration (“SET”) is an assay whereby binding between two molecules (such as an antigen and an antibody that binds the antigen) can be measured at equilibrium in a solution. For example, Meso-Scale Discovery (“MSD”)-based SET, or MSD-SET, is a useful mode of determining dissociation constants for particularly high-affinity protein-protein interactions at equilibrium (see, for example: Ducata et al. (2015) J Biomolecular Screening 20(10): 1256-1267). The SET-based assays are particularly useful for determining KD values of antibodies with sub-nanomolar (e.g., picomolar) affinities.
(§4) For solution equilibrium titration-based binding assays, protein complexes that comprise one of the presenting molecules such as those shown above may be employed as antigen (presenting molecule-TGFβ1 complex, or an LLC). Test antibodies are allowed to form antigen-antibody complex in solution. Antigen-antibody reaction mixtures are incubated to allow an equilibrium to be reached; the amount of the antigen-antibody complex present in the assay reactions can be measured by suitable means well known in the art. As compared to BLI-based assays, SET-based assays are less affected by on/off rates of the antigen-antibody complex, allowing sensitive detection of very high affinity interactions.

hLRRC33-proTGFβ1 = molecular target: T2, hLRRC33-proTGFβ1 (Homo sapiens, UniProt P01137); assay: MSD-SET solution equilibrium titration binding; details: MSD-SET at equilibrium, hIgG4, human complex; in M
T2 construct: made in house
From the text: as §1, §2, §3, §4

hLTBP1-proTGFβ1 = molecular target: T3, hLTBP1-proTGFβ1 (Homo sapiens, UniProt P01137); assay: MSD-SET solution equilibrium titration binding; details: MSD-SET at equilibrium, hIgG4, human complex; in M
T3 construct: made in house; host or cells: Expi293F cells, transient co-transfection
From the text: as §1, §2, §3, §4

hLTBP3-proTGFβ1 = molecular target: T4, hLTBP3-proTGFβ1 (Homo sapiens, UniProt P01137); assay: MSD-SET solution equilibrium titration binding; details: MSD-SET at equilibrium, hIgG4, human complex; in M
T4 construct: made in house; host or cells: Expi293F cells, transient co-transfection
From the text: as §1, §2, §3, §4

[1] = test system: hLTBP1-/hLTBP3-proTGFβ1 vs hGARP-/hLRRC33-proTGFβ1 complexes; assay: Solution equilibrium titration: relative affinity (bias) LTBP complexes vs cell-associated complexes; type: binding, human; details: for Kd / (H) G/D (fold bias): MSD-SET; for (H) G/D (fold bias): ratio of average KD cell-associated / matrix-associated
From the text: Context-biased: As used herein, “context-biased antibodies” refer to a type of conformational antibodies that binds an antigen with differential affinities when the antigen is associated with (i.e., bound to or attached to) an interacting protein or a fragment thereof. Thus, a context-biased antibody that specifically binds an epitope within proTGFβ1 may bind LTBP1-proTGFβ1, LTBP3-proTGFβ1, GARP-proTGFβ1 and LRRC33-proTGFβ1 with different affinities. […] Relative affinities of [matrix-associated complexes]: [cell-associated complexes] may be obtained by taking average KD values of the former, taking average KD values of the latter, and calculating the ratio of the two, as exemplified herein.
In a yet further aspect, the present disclosure provides context-biased TGFβ1 inhibitors. The context-biased antibodies include LTBP-biased antibodies with higher affinities for ECM-associated LLCs than for cell-associated LLCs wherein the affinities are measured at equilibrium.

[2] = average KD of (E) and (F), read-out: (G) Cell AVRG
[3] = average KD of (B) and (C), read-out: (D) ECM AVRG

T2 sequence (P01137 30-390): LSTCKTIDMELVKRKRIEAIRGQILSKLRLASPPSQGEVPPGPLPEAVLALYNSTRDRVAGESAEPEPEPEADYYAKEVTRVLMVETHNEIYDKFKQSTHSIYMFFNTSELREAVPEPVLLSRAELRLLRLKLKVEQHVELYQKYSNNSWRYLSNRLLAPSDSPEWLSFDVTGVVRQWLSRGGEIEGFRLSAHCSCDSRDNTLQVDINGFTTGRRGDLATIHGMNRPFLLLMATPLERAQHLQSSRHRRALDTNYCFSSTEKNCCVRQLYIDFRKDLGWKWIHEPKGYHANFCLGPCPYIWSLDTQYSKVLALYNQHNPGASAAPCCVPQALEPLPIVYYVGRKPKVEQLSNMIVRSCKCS
T2 sequence (Q86YC3 19-650 partner limits assumed): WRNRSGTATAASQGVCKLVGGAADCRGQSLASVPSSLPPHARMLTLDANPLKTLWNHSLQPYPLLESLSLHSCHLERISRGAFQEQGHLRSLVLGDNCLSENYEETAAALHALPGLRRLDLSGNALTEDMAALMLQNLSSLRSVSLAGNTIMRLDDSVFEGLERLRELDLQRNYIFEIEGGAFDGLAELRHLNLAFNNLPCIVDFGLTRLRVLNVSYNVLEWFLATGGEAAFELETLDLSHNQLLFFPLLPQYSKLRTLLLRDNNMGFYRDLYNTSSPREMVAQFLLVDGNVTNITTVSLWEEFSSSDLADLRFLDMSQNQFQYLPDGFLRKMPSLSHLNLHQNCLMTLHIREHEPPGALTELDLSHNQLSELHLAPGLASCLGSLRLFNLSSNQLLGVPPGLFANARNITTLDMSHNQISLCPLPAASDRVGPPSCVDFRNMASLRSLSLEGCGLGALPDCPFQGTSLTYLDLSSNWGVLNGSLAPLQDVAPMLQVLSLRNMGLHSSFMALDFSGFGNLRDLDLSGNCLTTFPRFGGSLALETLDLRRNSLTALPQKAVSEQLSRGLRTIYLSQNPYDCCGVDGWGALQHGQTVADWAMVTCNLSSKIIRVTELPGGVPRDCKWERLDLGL
T1 sequence (P01137 30-390): as the sequence (P01137 30-390) above
T1 sequence (Q14392 20-627 partner limits assumed): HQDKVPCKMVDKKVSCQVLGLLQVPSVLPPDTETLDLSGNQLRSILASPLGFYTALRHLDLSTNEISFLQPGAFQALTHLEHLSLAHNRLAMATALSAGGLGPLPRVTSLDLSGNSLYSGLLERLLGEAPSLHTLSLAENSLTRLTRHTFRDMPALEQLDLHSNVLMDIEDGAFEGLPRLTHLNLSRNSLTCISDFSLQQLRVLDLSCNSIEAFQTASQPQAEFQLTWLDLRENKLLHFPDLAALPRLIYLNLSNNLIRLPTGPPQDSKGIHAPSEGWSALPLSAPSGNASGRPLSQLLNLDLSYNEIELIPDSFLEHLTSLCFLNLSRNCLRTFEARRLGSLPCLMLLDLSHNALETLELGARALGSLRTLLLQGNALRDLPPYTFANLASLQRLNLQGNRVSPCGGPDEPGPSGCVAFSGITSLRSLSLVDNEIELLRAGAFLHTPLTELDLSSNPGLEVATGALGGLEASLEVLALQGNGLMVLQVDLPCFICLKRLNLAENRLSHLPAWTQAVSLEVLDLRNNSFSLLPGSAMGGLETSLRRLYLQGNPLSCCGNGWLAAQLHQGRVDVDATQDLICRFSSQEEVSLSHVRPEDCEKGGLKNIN
T3 sequence (P01137 30-390): as the sequence (P01137 30-390) above
T3 sequence (Q14766 873-1507 partner): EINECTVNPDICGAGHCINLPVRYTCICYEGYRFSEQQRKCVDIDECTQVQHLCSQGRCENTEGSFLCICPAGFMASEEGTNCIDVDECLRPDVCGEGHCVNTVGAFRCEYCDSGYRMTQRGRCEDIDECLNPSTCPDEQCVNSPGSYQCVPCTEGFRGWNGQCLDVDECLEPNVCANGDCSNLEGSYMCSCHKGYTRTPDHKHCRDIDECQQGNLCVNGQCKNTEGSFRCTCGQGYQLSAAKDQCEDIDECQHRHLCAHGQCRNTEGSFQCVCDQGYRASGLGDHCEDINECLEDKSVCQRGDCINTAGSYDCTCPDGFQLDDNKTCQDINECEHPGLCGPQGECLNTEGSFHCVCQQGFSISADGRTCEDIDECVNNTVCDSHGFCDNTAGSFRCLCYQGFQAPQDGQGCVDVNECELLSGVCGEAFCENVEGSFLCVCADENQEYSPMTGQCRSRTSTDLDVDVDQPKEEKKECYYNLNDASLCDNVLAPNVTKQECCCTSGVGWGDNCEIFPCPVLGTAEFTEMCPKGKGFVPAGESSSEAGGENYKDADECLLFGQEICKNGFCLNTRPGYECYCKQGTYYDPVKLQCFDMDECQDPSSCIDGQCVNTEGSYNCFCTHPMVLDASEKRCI
T4 sequence (P01137 30-390): as the sequence (P01137 30-390) above
T4 sequence (Q9NS15 866-1039 partner limits assumed): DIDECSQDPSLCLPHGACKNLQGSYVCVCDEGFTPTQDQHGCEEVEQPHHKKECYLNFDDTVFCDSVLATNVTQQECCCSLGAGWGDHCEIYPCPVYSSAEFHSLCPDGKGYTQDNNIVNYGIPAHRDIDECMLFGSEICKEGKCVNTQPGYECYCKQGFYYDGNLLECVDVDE

Row | Molecule | (E) hGARP, Cell-associated proTGFβ1 KD (hGARP-proTGFβ1) | (F) hLRRC33, Cell-associated proTGFβ1 KD (hLRRC33-proTGFβ1) | (B) hLTBP1, Matrix-associated proTGFβ1 KD (hLTBP1-proTGFβ1) | (C) hLTBP3, Matrix-associated proTGFβ1 KD (hLTBP3-proTGFβ1) | matrix/LTBP-bias in relative affinities between at least one matrix-associated and at least one cell-associated complex [1] | Kd [1, 2] [nM] | (H) G/D (fold bias) [1] [fold] | Kd [1, 3] [nM] | average affinity for human LTBP1-/LTBP3-proTGFβ1 relative to human GARP-/LRRC33-proTGFβ1 complexes (LTBP-biased) ([1]; solution equilibrium titration)
1 | Ab11: monoclonal antibody; VH SEQ ID NO: 239, VL SEQ ID NO: 241 (antibody, V domains shown) VH: EVQLLESGGGLVQPGGSLRLSCAASGFTFRNYAMSWVRQAPGKGLEWVSSISGSGGATYYADSVKGRFTISRDNSKNTLYLQMNSLRAEDTAVYYCARVSSGHWDFDYWGQGTLVTVSS VL: DIQLTQSPSSLSASVGDRVTITCRASQSISSYLNWYQQKPGKAPKLLIYAASNLQSGVPSRFSGSGSGTDFTLTISSLQPEDFATYYCQQTYTVPLTFGGGTKVEIK | 3.00E−09 | 6.30E−09 | 1.20E−09 | 1.20E−09 | more than five-fold | 4.65 | 3.87 | – | –
2 | Ab20: monoclonal antibody; VH SEQ ID NO: 251, VL SEQ ID NO: 241 (antibody, V domains shown) VH: EVQLLESGGGLVQPGGSLRLSCAASGFTFSAYAMTWVRQAPGKGLEWVSAISGSGGVTYYADSVKGRFTISRDNSKNTLYLQMNSLRAEDTAVYYCARVSSGHWDYDYWGQGTLVTVSS VL: DIQLTQSPSSLSASVGDRVTITCRASQSISSYLNWYQQKPGKAPKLLIYAASNLQSGVPSRFSGSGSGTDFTLTISSLQPEDFATYYCQQTYTVPLTFGGGTKVEIK | 1.10E−09 | 1.60E−09 | 2.20E−10 | 1.80E−10 | more than five-fold | – | 6.75 | 0.2 | proTGFβ1 and LTBP3-proTGFβ1 complexes is at least five-fold
3 | Ab22: monoclonal antibody; VH SEQ ID NO: 130, VL SEQ ID NO: 15 (antibody, V domains shown) VH: EVQLVESGGGLVQPGGSLRLSCAASGFTFGSFSMNWVRQAPGKGLEWVSYIHSDASTIYYADSVKGRFTISRDNAKNSLYLQMNSLRAEDTAVYYCARGVLDYGDMLDPWGQGTLVTVSS VL: DIQMTQSPSSLSASVGDRVTITCQASQDITNYLNWYQQKPGKAPKLLIYDASNLETGVPSRFSGSGSGTDFTFTISSLQPEDIATYYCQQADNHPPWTFGGGTKVEIK | 2.70E−11 | 2.00E−10 | 5.00E−11 | 3.30E−11 | – | 0.114 | 2.71 | 0.042 | –
4 | Ab31: monoclonal antibody; VH SEQ ID NO: 139, VL SEQ ID NO: 15 (antibody, V domains shown) VH: EVQLVESGGGLVQPGGSLRLSCAASGFTFSSFSMDWVRQAPGKGLEWVSYISPDASTIYYADSVKGRFTISRDNAKNTLYLQMNSLRAEDTAVYYCARAVLDYGDMLDPWGQGTLVTVSS VL: DIQMTQSPSSLSASVGDRVTITCQASQDITNYLNWYQQKPGKAPKLLIYDASNLETGVPSRFSGSGSGTDFTFTISSLQPEDIATYYCQQADNHPPWTFGGGTKVEIK | 1.90E−11 | 9.60E−11 | 1.90E−11 | 1.40E−11 | – | 0.058 | 3.41 | 0.017 | –
5 | Ab30: monoclonal antibody; VH SEQ ID NO: 138, VL SEQ ID NO: 15 (antibody, V domains shown) VH: EVQLVESGGGLVQPGGSLRLSCAASGFTFSSFSMDWVRQAPGKGLEWVSYISPDASTIYYADSVKGRFTISRDNAKNSLYLQMNSLRAEDTAVYYCARGTLDYGDMLDPWGQGTLVTVSS VL: DIQMTQSPSSLSASVGDRVTITCQASQDITNYLNWYQQKPGKAPKLLIYDASNLETGVPSRFSGSGSGTDFTFTISSLQPEDIATYYCQQADNHPPWTFGGGTKVEIK | 2.20E−11 | 1.40E−10 | 3.10E−11 | 2.60E−11 | – | 0.081 | 2.80 | 0.029 | –
6 | Ab24: monoclonal antibody; VH SEQ ID NO: 132, VL SEQ ID NO: 15 (antibody, V domains shown) VH: EVQLVESGGGLVQPGRSLRLSCAASGFTFSSFAMYWVRQAPGKGLEWVSYISPDASTIYYADSVKGRFTISRDNAKNSLYLQMNSLRAEDTAVYYCARGVLDYGDMLDPWGQGTLVTVSS VL: DIQMTQSPSSLSASVGDRVTITCQASQDITNYLNWYQQKPGKAPKLLIYDASNLETGVPSRFSGSGSGTDFTFTISSLQPEDIATYYCQQADNHPPWTFGGGTKVEIK | 1.90E−11 | 1.80E−10 | 2.40E−11 | 2.10E−11 | – | 0.1 | 4.35 | 0.023 | –
7 | Ab29: monoclonal antibody; VH SEQ ID NO: 137, VL SEQ ID NO: 15 (antibody, V domains shown) VH: EVQLVESGGGLVQPGRSLRLSCAASGFTFSSFAMNWVRQAPGKGLEWVSYISPDASTIYYAGSVKGRFTISRDNAKNSLYLQMNSLRAEDTAVYYCVRAVLDYGDMLDPWGQGTLVTVSS VL: DIQMTQSPSSLSASVGDRVTITCQASQDITNYLNWYQQKPGKAPKLLIYDASNLETGVPSRFSGSGSGTDFTFTISSLQPEDIATYYCQQADNHPPWTFGGGTKVEIK | 5.50E−12 | 4.30E−11 | 1.20E−11 | 1.10E−11 | – | 0.024 | 2.00 | – | –
8 | Ab26: monoclonal antibody; VH SEQ ID NO: 134, VL SEQ ID NO: 15 (antibody, V domains shown) VH: EVQLVESGGGLVQPGGSLRLSCAASGFTFSSFSMDWVRQAPGKGLEWVSYISPDASTIYYADSVKGRFTISRDNAKNTLYLQMNSLRAEDTAVYYCARGVLDYGDMLDPWGQGTLVTVSS VL: DIQMTQSPSSLSASVGDRVTITCQASQDITNYLNWYQQKPGKAPKLLIYDASNLETGVPSRFSGSGSGTDFTFTISSLQPEDIATYYCQQADNHPPWTFGGGTKVEIK | 1.40E−11 | 1.30E−10 | 2.80E−11 | 2.30E−11 | – | 0.072 | 2.77 | 0.026 | –
